Data from patent publication US20230416798A1 (MBRACE THERAPEUTICS, published 2023).
Blank lines part the entries; values can stand above or below the binder they belong to.

Legend:
Assay in all cases: alanine scan, high-throughput flow cytometry; criterion for major residues
[1] = target: T1, GRP78 alanine scan variant at H265 (human, UniProt P11021 19-654)
T1 construct: Member of the alanine scan library of GRP78
Experimental: (§1) To characterize the binding properties of the antibodies described in Example 1 for GRP78, epitope mapping analysis was carried out by alanine scan mutagenesis. An alanine scan library of GRP78 was constructed. Each anti-GRP78 antibody was then screened for binding to each individual GRP78 variant, allowing identification of the target protein residues involved in antibody binding.
(§2) Binding of each test antibody to each GRP78 variant in the alanine scanning library was determined by high-throughput flow cytometry under high stringency conditions (e.g., increased pH, increased salinity, increased temperature and/or increased wash time). Also included in the experiment was a commercially-available monoclonal antibody, 1H11-1H7, which was verified to bind to WT GFR78 on cells and thus determined to be a suitable positive control under these conditions (Thermo Fisher Scientific, Waltham, MA). Antibody binding to each of the GRP78 variant as measured by the fluorescence signal (raw fluorescence data minus the background), was normalized to its binding to the wildtype (WT) GRP78. For each GRP78 variant, such normalized binding to the test antibodies was plotted relative to that to the control antibody.

[2] = target: T2, GRP78 alanine scan variant at R261 (human, UniProt P11021 19-654)
T2 construct: Member of the alanine scan library of GRP78
Experimental: as §1, §2

[3] = target: T3, GRP78 alanine scan variant at E329 (human, UniProt P11021 19-654)
T3 construct: Member of the alanine scan library of GRP78
Experimental: as §1, §2

[4] = target: T4, GRP78 alanine scan variant at R279 (human, UniProt P11021 19-654)
T4 construct: Member of the alanine scan library of GRP78
Experimental: as §1, §2

T2 sequence (P11021 other isoform, or with tags, fused parts or gaps mutant limits assumed): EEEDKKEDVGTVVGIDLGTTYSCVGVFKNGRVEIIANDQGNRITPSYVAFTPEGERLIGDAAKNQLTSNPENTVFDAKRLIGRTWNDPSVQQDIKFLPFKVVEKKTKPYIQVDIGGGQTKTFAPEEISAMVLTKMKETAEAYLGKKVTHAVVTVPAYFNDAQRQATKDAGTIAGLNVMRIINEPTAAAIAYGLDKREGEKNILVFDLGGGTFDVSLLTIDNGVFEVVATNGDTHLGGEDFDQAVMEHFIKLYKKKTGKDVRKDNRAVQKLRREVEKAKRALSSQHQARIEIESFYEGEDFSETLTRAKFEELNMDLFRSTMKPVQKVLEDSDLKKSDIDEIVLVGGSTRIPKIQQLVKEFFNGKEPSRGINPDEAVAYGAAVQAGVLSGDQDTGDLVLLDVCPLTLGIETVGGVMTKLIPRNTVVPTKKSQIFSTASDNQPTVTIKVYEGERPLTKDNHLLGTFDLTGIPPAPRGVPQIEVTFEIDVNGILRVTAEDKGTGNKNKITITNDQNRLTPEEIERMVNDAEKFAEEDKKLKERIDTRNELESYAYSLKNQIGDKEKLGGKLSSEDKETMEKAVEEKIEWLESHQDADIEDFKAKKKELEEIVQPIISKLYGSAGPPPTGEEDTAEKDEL
T1 sequence (P11021 other isoform, or with tags, fused parts or gaps mutant limits assumed): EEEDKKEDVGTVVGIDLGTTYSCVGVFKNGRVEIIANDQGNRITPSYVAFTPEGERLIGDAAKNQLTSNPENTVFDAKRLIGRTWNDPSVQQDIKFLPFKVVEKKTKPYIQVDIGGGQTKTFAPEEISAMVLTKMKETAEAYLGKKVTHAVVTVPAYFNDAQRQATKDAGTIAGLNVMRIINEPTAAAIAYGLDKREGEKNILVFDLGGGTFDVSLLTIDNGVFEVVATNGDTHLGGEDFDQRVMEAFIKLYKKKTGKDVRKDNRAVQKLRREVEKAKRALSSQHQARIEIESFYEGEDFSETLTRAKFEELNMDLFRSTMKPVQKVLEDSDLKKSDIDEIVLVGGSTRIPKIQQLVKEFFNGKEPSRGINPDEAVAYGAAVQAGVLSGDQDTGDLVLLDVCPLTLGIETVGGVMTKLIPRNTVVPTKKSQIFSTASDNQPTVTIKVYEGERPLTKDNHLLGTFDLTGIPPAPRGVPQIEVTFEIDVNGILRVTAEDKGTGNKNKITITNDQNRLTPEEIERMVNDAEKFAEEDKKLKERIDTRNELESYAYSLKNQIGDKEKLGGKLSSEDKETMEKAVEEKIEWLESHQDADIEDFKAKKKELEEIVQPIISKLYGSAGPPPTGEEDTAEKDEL
T3 sequence (P11021 other isoform, or with tags, fused parts or gaps mutant limits assumed): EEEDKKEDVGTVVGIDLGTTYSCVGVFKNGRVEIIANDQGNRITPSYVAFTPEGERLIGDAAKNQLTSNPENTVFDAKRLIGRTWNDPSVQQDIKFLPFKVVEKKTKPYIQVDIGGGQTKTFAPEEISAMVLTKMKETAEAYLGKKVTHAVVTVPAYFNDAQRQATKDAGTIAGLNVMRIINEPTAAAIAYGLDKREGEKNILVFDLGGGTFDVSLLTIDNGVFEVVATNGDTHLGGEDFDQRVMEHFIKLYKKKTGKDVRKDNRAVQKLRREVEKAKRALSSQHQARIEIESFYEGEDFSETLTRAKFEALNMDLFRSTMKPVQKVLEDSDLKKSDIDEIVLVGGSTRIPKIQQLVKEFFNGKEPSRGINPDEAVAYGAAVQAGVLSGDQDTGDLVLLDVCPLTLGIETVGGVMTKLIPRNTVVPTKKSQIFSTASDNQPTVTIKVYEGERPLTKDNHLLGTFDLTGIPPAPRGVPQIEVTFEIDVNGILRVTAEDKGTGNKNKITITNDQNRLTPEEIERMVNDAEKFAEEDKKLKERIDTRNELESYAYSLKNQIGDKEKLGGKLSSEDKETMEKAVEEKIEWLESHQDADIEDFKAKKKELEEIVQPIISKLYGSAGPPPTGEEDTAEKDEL
T4 sequence (P11021 other isoform, or with tags, fused parts or gaps mutant limits assumed): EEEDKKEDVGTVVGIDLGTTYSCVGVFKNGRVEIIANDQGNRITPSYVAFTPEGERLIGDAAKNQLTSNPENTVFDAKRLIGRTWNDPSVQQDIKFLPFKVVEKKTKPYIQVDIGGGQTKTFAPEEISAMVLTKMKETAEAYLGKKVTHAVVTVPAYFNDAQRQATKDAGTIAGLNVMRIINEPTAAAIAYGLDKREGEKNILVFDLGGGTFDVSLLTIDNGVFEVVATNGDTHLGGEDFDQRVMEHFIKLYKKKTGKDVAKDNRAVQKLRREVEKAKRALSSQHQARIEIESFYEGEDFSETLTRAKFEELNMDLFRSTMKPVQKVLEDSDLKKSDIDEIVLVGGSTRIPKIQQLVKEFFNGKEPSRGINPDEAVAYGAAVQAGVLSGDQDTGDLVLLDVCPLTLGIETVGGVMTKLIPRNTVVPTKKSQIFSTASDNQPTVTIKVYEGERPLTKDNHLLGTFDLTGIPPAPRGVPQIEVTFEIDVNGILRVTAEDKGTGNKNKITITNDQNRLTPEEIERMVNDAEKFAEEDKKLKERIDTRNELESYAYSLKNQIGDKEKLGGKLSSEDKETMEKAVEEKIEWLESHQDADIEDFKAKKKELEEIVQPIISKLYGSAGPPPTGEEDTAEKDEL

binding normalized to wildtype (WT) GRP78 [1]: < 20%
binding normalized to wildtype (WT) GRP78 [2]: < 20%
binding normalized to wildtype (WT) GRP78 [3]: < 20%
B1: anti-GRP78 antibody clone B4 (antibody, IgG1, V domains shown)
VH: QVRLQESGPGLVKPSQTLSLTCTVSGGSISSGGYYWSWIRQHPGKGLEWIGYIYYSGSTYYNPSLESRVTISVDTSKNQFSLKLSSVTAADTAVYYCARYSSIDAFEIWGQGTMVTVSS
VL: SYVLTQPPSVSVAPGKTATITCGGDDIGSKSVHWYQQKPGQAPVLVVYDDGDRPSGIPERFSGSNSGNTATLAISRVEAGDEADYYCQVWDSSSDQYVFGSGTKLTVL
notes: Fully human mAb formatted as full-length IgG1; also called B4 mAb

binding normalized to wildtype (WT) GRP78 [4]: < 20%
binding normalized to wildtype (WT) GRP78 [2]: < 20%
B2: anti-GRP78 antibody clone F6 (antibody, IgG1, V domains shown)
VH: QVQLQQSGPGLVKPPQTLSLTCAISGDSVSSNSAAWNWIRQSPSRGLEWLGRTYYRSKWYNDYAVSVKSRITINPDTSKNQFSLQLNSVTPEDTAVYYCARDPYYYDSSGYYYFDAFDIWGQGTMVTVSS
VL: SYELTQPHSVSVAPGQTARITCGGDNIGSKSVHWYQQRPGQAPVLVVYDDSDRPSGIPERFSGSNSENTATLTISGVEAGDEADYYCQVWDSTSHHVVFGGGTKLTVL
notes: Fully human mAb formatted as full-length IgG1; also called F6 mAb; Anti-GRP78 (F6)
